The nanobody polyreactivity screen of Harvey et al. (2022)

Assay: yeast display, Sf9 membrane polyspecificity reagent, FACS + sequencing; frameworks hold sequencing errors
Method in brief: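 In a synthetic yeast display library (Saccharomyces cerevisiae BJ5465), nanobody expression was induced with galactose for 36–48 hours. FACS gates were set low and high (top ~1%) using anti-HA fluorescence for expression and streptavidin fluorescence for binding of the Sf9 membrane reagent. Each polyreactivity label is drawn from the gate of origin.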

Row | Sequence | polyreactivity (PSR sort gate)
1 | QVQLVESGGGLVQAGGSLRLSCAASGFISPPYAMGWYRQAPGKVMELVAAISSNGGRTSYADSVKGRFTISRDNAKNTVYLQMNSLKPEDTAVYYCNAVYSLYYTRYNYWGQGTQETVSS | high polyreactivity
2 | QVQLVESGGGLVQAGGSLRLSCAASGSTFIQYAMGWSRQAPGNERELVASIRWIGGSTYYADSVKGRFTISRDNAKNTVYLQMNSLKAEDTAVYYCAAGYEYVENGVDWYEYDYWGQGTQVTVSS | low polyreactivity
3 | QVQLVESGGGLVQAGGSLRLSCAASGSTFYTNAMGWYRPAPGKVRELVAAISSSGDSTYYADSVKGRFTISRDNAKNTVYLQMKSLKPDDTAVYYCNADLRSYNGFRYYYWGQGTKVTVSS | low polyreactivity
4 | QVQLVESGGGLVQAGGSLRLSSAASGSIFVLYAMGWYRQAPGKERELVAAIDVGGGSTYYADSVKGRFTISRDNAKNTVYLQMNSLKPEDTAVYYCAAELYYTYRWYDYWGQGTQVTVSS | high polyreactivity
5 | QVQLVESGGGLVQAGGSLRLSCAASGSIFNTYVMGWYTQAPGKERELVAAITSSGGRTYYADSVKGRFTISRDNAKNTVYLQMNSLNPEDTAVYYCNTAQRWVGRNDYWGQGTQVTVSS | high polyreactivity
6 | QVQHVESGGGIVQAGGSLRLSCAASGLTITAYVMGWYRQAPGKERELVAAIRNSGGSTYYADSVKGRFTISRDNAKNTVYLQMISLKPEDTAVYYCAKQTSYWSRGYDYWGQGTQVTVSS | low polyreactivity
7 | QVQLVESGGGLVQAGGSLRLSCAASGIILPYYAMGWYRQAPGKEREFVATISSDGTSTYYADSVKGRFTISRDNAKNTVYLQMNSLKPEDTAVYDCAARIRQNPGGDNSWGQGTQVTVSS | low polyreactivity
8 | QVQIVESGGGLVQAGGSLRLSCAAYGRTFSYYTMGWYRQAPGKERELVARISNRGTNTYYADSEKGRFTISRDNAKNTVYLQMNSLKPEDPAVYYCAKYYSTSIVGYDSWGQGTQVTVSS | low polyreactivity
9 | QVQLVESGGGLVQAGGSLRLSCAASGIIFALYAMGWYRQAPGKERELVATITYSGGSTYYADSVKGRFTISRDNAKNTVYLQMNSLKPEDTAVYYCAADYYILRWRQTNDYWGQGTQVTVSS | low polyreactivity
10 | QVQLVESGGGLVQAGGSLSLSCAASGIIFVDYAMGWYRQAPGKERELVAVIRSAGSTYYADSVKGRFTISRDNAKNTVYLQMNSLKPEDTAVYYCNARARGARRYYYWGQGTQVTVSS | high polyreactivity
11 | QVQIVESGGGLVQAGGSLRLSCDASGSIFNYNAMGWYRQAPGKEREFVAAINQGGTSTYYADSVKGRFTISRDNAKNTVYLQINSLKPEDTAVYYCAALITVYRGSYEYWGQGTQVTVSS | low polyreactivity
12 | QVQLVESGGGLVQAGGSLRLSCAASGRIFALNALGWYRQAPGKERELVATFRWSGGSTYYADSVKGRFTISRDYAKNTVYLQMNSLKPEDTAVYYCAAYSGNRRTYDYWGHGTQVTVSS | high polyreactivity
13 | QVQLVESGGGLVQAGGSLRLSCAASGRIFSNNAMGWYRQAPGKERELVAASNRSGDGTYYADSVKGRFTSSRDHAKNTVYLQMNSLKPEDTAVYYCAVRYYWGYTSYGYWGQGTQVTVSS | high polyreactivity
14 | QVQLVESGGGLVQAGGSLRLSCAASGRIFYYNTMGWYRQAPGKERELVARITYSGGRTYYADSVKGRFTISRDNAKNTVYLQMNSLKPEDTAVYYCNTAYRYFERQMYYWGQGTQVTVSS | high polyreactivity
15 | QVQLVESGGGLVQAGGSLRLSCAASGLTFVAYGMGWYRQAPGKERELVATIRWRGGSTYYADSVKGRFTISRDNAKNTVYLQMNSLKPEDTAVYYCAATRARRWSSPGQYGYWGQGTQVTVSS | high polyreactivity
16 | QVQLVESGGGLVQAGGSLRLSCAASGSIFNGYTMGWYRQAPRKERELVAAISSRGGITYYADSVKGRFTISRDNAKNTVYLQMNSLKPEDTAVYYCAKTSGYYQAGSLKYGYWGQGTQVTVSS | high polyreactivity
17 | QVQLVESGGGLVQAGGSLRLRWDASGRILWYNAMGWYRQAPGKERELVAAIRSGGRTHYADSVKGRFTISRDNAKNTVYLQMNCLKPEDTAVYYCAARSVPYPYRRNPYDYWGQGTQVTVSS | high polyreactivity
18 | QVQLVESGGGLVQAGGSLRLRCAASGRIFGRYAMGWYRQAPGKERELVARITYIAGNTYYADSVKGRFTISRDNSKNTVYLQMKSLKPEDTAVYSCNADSYYIQYDYWGQGTQVTVSS | high polyreactivity
19 | QVQLVESGGGLIQAGGSLRLSCAASGSTFGTYTRGWYRQAPGKERELVAAIRSGGITYYADSVKGRFTISRDNAKNTVYLQMNSLKPEDTAVYYCAKQYTGEPAMEYWGQGTQVTVSS | low polyreactivity
20 | QVQLVESGGGLVQAGGSLRLSCAASGRIFNHYAMGWYRQAPGKERELVASITSGAGTNYADSVKGRFTISRDNAKNTVYLQMNSLKPEDTAVYYCNADLYDYYYSDGDYWGQGTQVTVSS | high polyreactivity
21 | QVQLVESGGGLVQAGGSLSLSCAASGSISLVYAMGWYRQAPGKERELVAAISASGGRTYYADSVKGRFTISRDNAKNTVYLQMNSLKPEDTAVYYFSKDVKKIEFDYWGQGTQVTVSS | high polyreactivity
22 | QVQLVESGGGLVQAGGSLRLSCAASGSTCTGYTMGWYRQAPGNERELVAAITYRGGSTYYADSVKGRFTISRDNAKNTVYLQKNSLKPEETAVYYCAAVPEYYEYSPYDYWGQGTQVTVSS | low polyreactivity

Row | Sequence | polyreactivity (PSR sort gate)
23 | QVQLVESGGGLVQAGGSLRLSCAASGSTLGRNAMGWDRQAPGKERELVASITRSGGSTYYADSVKGRFTISRDNAKNTVYLQMNSLKPEDTAVYYCAAEVQGQVGEFDYWGQGTQVTVSS | low polyreactivity
24 | QVQLVESGGGLVKAGGSLRLSCAASGSTFGSNALGWYRQAPGKERELVAAISNSGGRTYYADSVKGRFTISRDNAKNTVYLQMNSLKPEDTAVYYCAVGSYRDGDYWGQGTQVTVSS | high polyreactivity
25 | QVQLVESGGGLVQAGGSLRLSCAASGSTFRIYAMGLYRQAPGKERELVAAIRRSGGSTYYADSVKGRFTISRDNAKNTVYLQMNSLKPEDTAVYYCAADLYYQAPGYQDRYRHSRYEYWGQGTQVTVSS | high polyreactivity
26 | QVQLVESGGGLVQAGGSLRLSCAASGRIFFYYAMGWYRQAPGTERELVAAITSGGNTNYADSVKGRFTISRDNAKNTVYLQMNSLKPEDTAVYYCAVDSWEYWRRGIYYYRFYYWGQGTQVTVSS | low polyreactivity
27 | QVQLVESGGGLVQAGGSLRLSCAPSGSTFEHYTMGWYRQAPGKERELVAAISRRGGRTYYADSVKGRFTISRDNAKNTVYLQMNSLKPEDTAVYYCNAPVYTRKSIDYDYCGQGTQVTVSS | high polyreactivity
28 | QVQLVESGGGLVQAGGSLRLSCAASGSTFPYYAMGWYRQAPGKERELVAAITSSASTYYADSVKGRFTISRDNAKNTVYLQMNSLKPEDTAVYYCAVRSPYRLSRWRVGYWGQGTQVTVSS | high polyreactivity
29 | QVQLVESGGGLVQAGGSLRLSCAASGSIAGNAMGWYRQAPGKERELVAAITFRGSGTYYADSVKGRFTISRDNAKNTVYLQMNSLKPEDTAVDYCNAYRRGLSVYGYWGQGTQVTVSS | high polyreactivity
30 | QVQLVESGGGLVQAGGSLRLSCPASGSIFRFYTMGWYRQAPGKERELVASITWTGGSSYYADSVKGRFTISRDNAKNTVYLQMNSLKPEDTAVYYCAARRYLRLVGRYDYWGQGTQVTVSS | low polyreactivity
31 | QVQLVESVGGLVQAGGSLRLSCAASGRIFWKYTMGWYRQAPGKERELVAAIRSAGGSTYYADSVKGRFTISRDNAKNTVYLQMNSLKPEDTAVYYCAAEPSQRYPLSGYYYWGQGTQVTVSS | low polyreactivity
32 | QVQLVESRRGLVQAGGSLRLSCAASGRIFYRYALGWYRQAPGKEREFVAAISRSGGTTYYADSVKGRFTISRDNAKNTVYLQMNSLNPEDTAVYYCAAGGSFWYFSPRYGYWGQGTQVTVSS | high polyreactivity
33 | QVQLVESGGGLVQAGGSVRLSCAASGSIFTGYAMGWYRQAPGKERELVAAISRSSGSTYYADSVKGRFTISRDNAKNTVYLQMNSLKPEDTAVYYCNAYSKYRSGRLYWMGYWGQGTQVTVSS | high polyreactivity
34 | QVQLVESGGGLVQAGGSLRLSCAASGGTIYGYAAMGWYRQAPGKERELVAAISRSGGRTYYADSVKGRFTISRDNAKNTVYLQMNSRKPEDTAVYYCAARRAYSRPPRDYWGQCTQVTVSS | high polyreactivity
35 | QVQLVESGGGLVQAGGSLRISCAASGFIFDGYAMGWYRQAPGKERELVAAITYSGGSTYYADSLKGRFTISRDNAKNTVYLQMNRLKPEDTAVYYCNAEYSSFSVVQKDSDMDYWGQGTQVTVSS | low polyreactivity
36 | QVQLVESGGGLVQEGGSLRLSCAASGIIFLDNAMGWYRQAPGKERELVAAITTGGITYYADSVKGRFTISRDNAKNTVYLQMNSLKPEDTAVYYCATDPVNSGYQRYYYWGQGTQVTVSS | low polyreactivity
37 | QVQLVESGGGLVQAGGSLRLSCAASGFTFDTNAMGWYRQAPGKERELVAAISWGGDTTYYADSVKGRFTISRDNAKNTVYLQMNSLKPEDTAVYYCNVYWYDWWGYDYWGQGTQVTVSS | high polyreactivity
38 | QVQLVESGGGLVQAGGSLRLSCGASGRIFPGNAMGWYRQATGKERELVAGISFSGGRTYYADSVKGRFTISRDNAKNTVYLQMNSLTPEDSAVYYCATKYLQHWWRYDYWGQGTQVTVSS | low polyreactivity
39 | QVQLVESGGGLVQAGGSLRISCAPSGSTSVQYAMGWYRQAPGKERELVAAIDRSGGSTSYADSVKGRFTISRDNAKNTVYLQMNSLKPEDTAVYYCNADPVRSTYSYDYWGQGTQVTVSS | low polyreactivity
40 | QVQLVESGGGLVQAGGSLRLSCAASGLIFDYYPMGWYRTAPGKERELVAAISYSGGRTYYADSVKGRFTISRDKAKNTVYLQMNSLKPEDTAVYYCNKVVLQPVIVDHDYWGQGTQVTVSS | low polyreactivity
41 | QVQLVESGGGLVQAGGSLRISCAASGRTLRPNAMGWYRQAPGKERELVAAITWSGGRTYYADSVKGRFTISRDNAKNTVYLQMNSLKPGDTAVYYCAADYGYYRGGVYFQKLKFDYWGQGTQVTVSS | high polyreactivity
42 | QVQLVESGGGLVQAGGSLRLSCAASGIILRRYAMGWYRQAPGKERELVAAISSRGGSTYYADSVKGRFTISRDNAKNTVYLQMNSLKPEDTAVYYCANRPYGRSGGSRYDYWGQGTQVTVSS | high polyreactivity
43 | QVHLVESGGGLVQAGGSLRLSCAASGITFNSYAMGWYRQAPGKERDLDASISWIGGSTYYADSVKGRFTISRDNAKNTVYLQINSLKPDDTAVYYCAVDKGTDYYYDVDYWGQGTQVTVSS | low polyreactivity
